Here are results for two substances from article PMC10393192, “Structure and DNA-bridging activity of the essential Rec114–Mei4 trimer interface”.

Test in all cases: EMSA
The target in one series is T1, Rec114C;Mei4N (Saccharomyces cerevisiae;Saccharomyces …, UniProt P32841;P29467 375-428;1-43, |).
T1 sequence 1: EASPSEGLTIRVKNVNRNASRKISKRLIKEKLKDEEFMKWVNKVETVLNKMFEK
T1 sequence 2: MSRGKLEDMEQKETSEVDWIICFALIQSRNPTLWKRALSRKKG
To be noted: EMSA: 25 mM Tris-HCl pH 7.4, 100 mM NaCl, 5 ng DNA, 20 min, room temperature, AFM: 25 mM HEPES-NaOH pH 7.4, 5 mM MgCl2, 50 mM NaCl, 10% glycerol, 30 min, RT …. On the technique in general: A gel shift assay detects complexes by their altered migration in electrophoresis.

The test system of series [1] is Rec114(325-428);Mei4(1-90) (Saccharomyces cerevisiae;Saccharomyces cerevisiae). Particulars: EMSA: 25 mM Tris-HCl pH 7.4, 100 mM NaCl, 5 ng DNA, 20 min, room temperature; AFM: 25 mM HEPES-NaOH pH 7.4, 5 mM MgCl2, 50 mM NaCl, 10% glycerol, 30 min, RT ….
Series [2] deals with Rec114(386-428);Mei4N (Saccharomyces cerevisiae;Saccharomyces cerevisiae) (UniProt P29467). To be noted: EMSA: 25 mM Tris-HCl pH 7.4, 100 mM NaCl, 5 ng DNA, 20 min, room temperature; AFM: 25 mM HEPES-NaOH pH 7.4, 5 mM MgCl2, 50 mM NaCl, 10% glycerol, 30 min, RT ….
The target in series [3] is Rec114(388-428) K399A/R400A;Mei4N (Saccharomyces cerevisiae;Saccharomyces cerevisiae) (UniProt P29467). Particulars: EMSA: 25 mM Tris-HCl pH 7.4, 100 mM NaCl, 5 ng DNA, 20 min, room temperature; AFM: 25 mM HEPES-NaOH pH 7.4, 5 mM MgCl2, 50 mM NaCl, 10% glycerol, 30 min, RT ….
For series [4], the target named is Rec114(388-428) K403A/K407A;Mei4N (Saccharomyces cerevisiae;Saccharomyces cerevisiae) (UniProt P29467). To be noted: EMSA: 25 mM Tris-HCl pH 7.4, 100 mM NaCl, 5 ng DNA, 20 min, room temperature; AFM: 25 mM HEPES-NaOH pH 7.4, 5 mM MgCl2, 50 mM NaCl, 10% glycerol, 30 min, RT ….
Series [5] has as its target Rec114(388-428) K417A/K424A;Mei4N (Saccharomyces cerevisiae;Saccharomyces cerevisiae) (UniProt P29467). Particulars: EMSA: 25 mM Tris-HCl pH 7.4, 100 mM NaCl, 5 ng DNA, 20 min, room temperature; AFM: 25 mM HEPES-NaOH pH 7.4, 5 mM MgCl2, 50 mM NaCl, 10% glycerol, 30 min, RT ….
The target in series [6] is Rec114(388-428) R395A/K396A;Mei4N (Saccharomyces cerevisiae;Saccharomyces cerevisiae) (UniProt P29467). Particulars: EMSA: 25 mM Tris-HCl pH 7.4, 100 mM NaCl, 5 ng DNA, 20 min, room temperature; AFM: 25 mM HEPES-NaOH pH 7.4, 5 mM MgCl2, 50 mM NaCl, 10% glycerol, 30 min, RT ….
The subject of series [7] is Rec114(388-428);Mei4(13-43) (Saccharomyces cerevisiae;Saccharomyces cerevisiae). Particulars: EMSA: 25 mM Tris-HCl pH 7.4, 100 mM NaCl, 5 ng DNA, 20 min, room temperature; AFM: 25 mM HEPES-NaOH pH 7.4, 5 mM MgCl2, 50 mM NaCl, 10% glycerol, 30 min, RT ….
The target in series [8] is Rec114(388-428);Mei4N (Saccharomyces cerevisiae;Saccharomyces cerevisiae) (UniProt P29467). To be noted: EMSA: 25 mM Tris-HCl pH 7.4, 100 mM NaCl, 5 ng DNA, 20 min, room temperature; AFM: 25 mM HEPES-NaOH pH 7.4, 5 mM MgCl2, 50 mM NaCl, 10% glycerol, 30 min, RT ….
For series [9], the target named is Rec114C;Mei4N-ybbR (Saccharomyces cerevisiae;Saccharomyces cerevisiae) (UniProt P32841). Particulars: C50, unlabeled; EMSA: 25 mM Tris-HCl pH 7.4, 100 mM NaCl, 5 ng DNA, 20 min, room temperature; AFM: 25 mM HEPES-NaOH pH 7.4, 5 mM MgCl2, 50 mM NaCl, 10% glycerol, 30 min, RT ….
In series [10] the target is Rec114C;Mei4N-ybbR-LD650 (Saccharomyces cerevisiae;Saccharomyces cerevisiae) (UniProt P32841). Particulars: C50, single experiment; EMSA: 25 mM Tris-HCl pH 7.4, 100 mM NaCl, 5 ng DNA, 20 min, room temperature; AFM: 25 mM HEPES-NaOH pH 7.4, 5 mM MgCl2, 50 mM NaCl, 10% glycerol, 30 min, RT ….
The target in series [11] is T2, Rec114C (Saccharomyces cerevisiae) (UniProt P32841).
T2 sequence: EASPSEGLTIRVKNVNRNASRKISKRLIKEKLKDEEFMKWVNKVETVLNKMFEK
To be noted: C50, single experiment; main text ~300-400 nM; concentration as dimer; EMSA: 25 mM Tris-HCl pH 7.4, 100 mM NaCl, 5 ng DNA, 20 min, room temperature; AFM: 25 mM HEPES-NaOH pH 7.4, 5 mM MgCl2, 50 mM NaCl, 10% glycerol, 30 min, RT ….

On to 150-bp DNA, for which the K half was 90 nM in the series with Rec114C;Mei4N; 90 nM in series [1]; 110 nM in series [2]; 2000 nM in series [3]; 1000 nM in [4]; 900 nM in series [5]. The K half amounted to 1000 nM in series [6]; 100 nM in series [7]; 110 nM in [8]; 90 nM in [9]; 90 nM in series [10].
For the substance 1000-bp DNA, the K half was determined as 80 nM with Rec114C;Mei4N (C50) and 300 nM in series [11].
